Biological target: the molecule itself
Test: SDS-PAGE of semi-denatured protein

B1: M. tuberculosis aspartate decarboxylase PanD, wild type (enzyme)
chain: MLRTMLKSKIHRATVTCADLHYVGSVTIDADLMDAADLLEGEQVTIVDIDNGARLVTYAITGERGSGVIGINGAAAHLVHPGDLVILIAYATMDDARARTYQPRIVFVDAYNKPIDMGHDPAFVPENAGELLDPRLGVG
Q: Does B1 bind?
A: binds
